Target: human FLT3 domain 1 Fc fusion protein (wild type) (human) (UniProt P36888)
Assay: SPR (Carterra LSA); FLT3 D1-Fc captured on anti-human Ig Fc, Fab as analyte; mean ± SEM, n=4

| Kd | koff | kon | Binder |
| --- | --- | --- | --- |
| 5.2 nM | 0.0046 s⁻¹ | 890000 M⁻¹ s⁻¹ | Fab fragment of antibody 17566 (Fab, V domains shown) VH: QVTLKESGPVLVKPTETLTLTCTVSGFSFNNARMGVNWIRQPPGKALEWLAHIFSNDEKSYSTSLKSRLTISKDISKSQVVLTMTNMDPVDTATYYCARIVGYGSGWRLLGDYWGQGTLVTVSS VL: AIQMTQSPSSLSASVGDRVTITCRASQGITNDLGWYQQKPGKAPKLLIYAASSLQSGVPSRFSGSGSGTDFTLTISSLQPEDFATYYCLQDYNYPWTFGQGTKVEIK |
| 3.1 nM | 0.003 s⁻¹ | 980000 M⁻¹ s⁻¹ | Fab fragment of antibody 17497 (Fab, V domains shown) VH: QVQLQESGPGLVKPSGTLSLTCAVSGGSISSTNWWSWVRQPPGKGLEWIGEISHRGSTNYNPSLKSRVTISVDKSKNQFSLKLSSVTAADTAVYYCARDPEMTLYYYYGMDVWGQGTTVTVSS VL: DIQMTQSPSSLSASVGDRVTITCRASRGIRNDLGWYQQKPGKAPKRLIYAASSLQSGVPSRFSGSGSGTEFTLTISSLQPEDFATYYCLQHNSYPLTFGGGTKVEIK |
| 19.3 nM | 0.0099 s⁻¹ | 520000 M⁻¹ s⁻¹ | Fab fragment of antibody 17543 (Fab, V domains shown) VH: QVTLKESGPVLVKPTETLTLTCTVSGFSLINARMGVTWIRQPPGKALEWLAHIFSNDEKSYSTSLKSRLTISKDTSKSQVVLTMTNMDPVDTATYYCARIPGYSRGWDYYYYGMDVWGQGTMVTVSS VL: DIQMTQSPSSLSASVGDRVTITCRASQGIRNDLGWYQQKPGKAPKRLIYAASTLQSGVPSRFSGSGSGTEFTLTISSLQPEDFATYYCLQHNSYPWTFGQGTKVEIK |
